Residue numbers refer to the chain shown, from its start. Blank lines part the entries; values can stand above or below the binder they belong to.
Key:
[1] = target: T1, human FcγRIIIa V extracellular domain (human, UniProt P08637 17-208); assay: SPR Biacore 8K+; KD for FcγRIIb divided by KD for this FcγR;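 note: antibodies captured on an anti-human Fab kappa SA chip with soluble human FcγR ectodomains flowed over, FcγRIIb KD from steady-state fit, other FcγR KD from Langmuir model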
T1 construct: extracellular domain; also called hFcγR IIIa V

[2] = target: T2, human FcγRIIa H extracellular domain (human, UniProt P12318 34-217); assay: as above
T2 construct: extracellular domain; also called hFcγR IIa H
T2 sequence (looked up): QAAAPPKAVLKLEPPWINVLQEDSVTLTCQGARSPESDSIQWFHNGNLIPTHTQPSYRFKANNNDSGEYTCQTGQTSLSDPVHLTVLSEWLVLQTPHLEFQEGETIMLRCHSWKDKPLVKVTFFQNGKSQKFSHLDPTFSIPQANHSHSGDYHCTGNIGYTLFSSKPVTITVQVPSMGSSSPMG

[3] = target: T3, human FcγRIIa R extracellular domain (human, UniProt P12318 34-217); assay: as above
T3 construct: extracellular domain; also called hFcγR IIa R
T3 sequence (looked up): T2 sequence (looked up) with H134R

[4] = target: T4, human FcγRIIIa F extracellular domain (human, UniProt P08637 17-208); assay: as above
T4 construct: extracellular domain; also called hFcγR IIIa F

[5] = target: T1, human FcγRIIIa V extracellular domain; assay: SPR Biacore 8K+, antibody captured, FcγR as analyte, 1:1 Langmuir model;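 note: antibodies captured on a streptavidin chip through a biotinylated anti-human Fab kappa reagent, with FcγR extracellular domains injected in pH 7.4 phosphate buffer at 25 °C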
[6] = target: T2, human FcγRIIa H extracellular domain; assay: as above
[7] = target: T3, human FcγRIIa R extracellular domain; assay: as above
[8] = target: T4, human FcγRIIIa F extracellular domain; assay: as above
[9] = target: T5, human FcγRIa extracellular domain (human, UniProt P12314 16-292); assay: as above
T5 construct: extracellular domain; also called hFcγR Ia; hFcγRIa

[10] = target: T6, human FcγRIIb extracellular domain (human, UniProt P31994 43-217); assay: SPR Biacore 8K+, antibody captured, FcγR as analyte, steady state affinity model
T6 construct: extracellular domain; also called hFcγR IIb
T6 sequence (looked up): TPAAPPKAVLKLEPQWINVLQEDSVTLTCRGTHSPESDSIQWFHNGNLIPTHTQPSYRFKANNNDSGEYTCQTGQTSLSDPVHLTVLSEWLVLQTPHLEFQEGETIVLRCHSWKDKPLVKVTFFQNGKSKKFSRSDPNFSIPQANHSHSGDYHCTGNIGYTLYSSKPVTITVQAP

[11] = target: T7, hFcγRIIaH on hFcγRIIaH-expressing Jurkat cells (human, UniProt P12318 34-317); assay: cell-based or functional assay
T7 sequence (looked up): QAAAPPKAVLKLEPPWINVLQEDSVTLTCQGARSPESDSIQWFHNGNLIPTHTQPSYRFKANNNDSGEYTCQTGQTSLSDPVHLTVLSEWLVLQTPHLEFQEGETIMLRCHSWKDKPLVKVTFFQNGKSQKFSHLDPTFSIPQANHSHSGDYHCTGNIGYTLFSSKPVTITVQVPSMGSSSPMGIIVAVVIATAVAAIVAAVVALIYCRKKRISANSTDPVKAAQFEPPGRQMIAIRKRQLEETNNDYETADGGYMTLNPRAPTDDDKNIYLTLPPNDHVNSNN

[12] = target: hFcγRIIIaV on hFcγRIIIaV-expressing Jurkat cells (human, UniProt P08637 17-254); assay: cell-based or functional assay
[13] = target: T6, human FcγRIIb extracellular domain; assay: SPR Biacore 8K+; KD of G1d divided by KD of this antibody;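 note: antibodies captured on an anti-Fab-kappa streptavidin chip, soluble FcγR ectodomains flowed over, KD by steady-state fit for FcγRIIb and Langmuir kinetic model for the other receptors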
Protocol: (§1) The interaction between the produced antibodies and human FcγRs was analyzed using Biacore 8K+ by the method below. For the running buffer, 50 mM Na-Phosphate, 150 mM NaCl, and 0.05% Tween20 (pH 7.4) was used, and measurement was performed at 25° C. The sensor chip used was a Series S SA chip (GE Healthcare) onto which CaptureSelect Human Fab-kappa Kinetics Biotin Conjugate (Thermo Fisher Scientific) was immobilized. An antibody of interest was captured onto this chip, and each FcγR diluted with the running buffer was allowed to interact with it. The chip was regenerated using 10 mM Glycine-HCl (pH 1.5), and repeatedly used to capture antibodies and perform measurement. The dissociation constants KD (mol/L) of each antibody for FcγRs were calculated using Biacore Insight Evaluation Software, with a steady state affinity model for the dissociation constant for FcγRIIb and a 1:1 Langmuir binding model for the dissociation constants for the other FcγRs (Table 48).

[14] = target: T1, human FcγRIIIa V extracellular domain; assay: as above
Protocol: as §1

[15] = target: T2, human FcγRIIa H extracellular domain; assay: as above
Protocol: as §1

[16] = target: T3, human FcγRIIa R extracellular domain; assay: as above
Protocol: as §1

[17] = target: T4, human FcγRIIIa F extracellular domain; assay: as above
Protocol: as §1

[18] = target: T5, human FcγRIa extracellular domain; assay: as above
Protocol: as §1

[19] = target: T8, human C1q protein (Calbiochem) (human, UniProt P02745 23-245; P02746 28-253; P02747 29-245); assay: ELISA: antibody coated on the plate at the varied concentration, hC1q 3 µg/mL added, detected with HRP-conjugated anti-hC1q antibody, O.D (450-690nm)
T8 construct: bought; also called hC1q
T8 sequence (P02745 23-245 limits assumed, chain 1 of 3): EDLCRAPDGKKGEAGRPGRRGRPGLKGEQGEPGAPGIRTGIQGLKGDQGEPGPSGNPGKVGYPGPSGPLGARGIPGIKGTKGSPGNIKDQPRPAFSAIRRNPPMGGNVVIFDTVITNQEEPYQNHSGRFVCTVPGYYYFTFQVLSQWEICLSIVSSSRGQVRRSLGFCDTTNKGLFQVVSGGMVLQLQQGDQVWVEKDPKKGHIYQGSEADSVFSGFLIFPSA
T8 sequence (P02746 28-253 limits assumed, chain 2 of 3): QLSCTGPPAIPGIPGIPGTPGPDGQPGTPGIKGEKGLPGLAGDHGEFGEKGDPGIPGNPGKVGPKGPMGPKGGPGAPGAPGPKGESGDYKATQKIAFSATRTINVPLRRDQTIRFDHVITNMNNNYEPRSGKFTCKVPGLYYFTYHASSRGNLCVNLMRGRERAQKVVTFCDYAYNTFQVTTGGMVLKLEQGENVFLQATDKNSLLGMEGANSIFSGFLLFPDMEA
T8 sequence (P02747 29-245 limits assumed, chain 3 of 3): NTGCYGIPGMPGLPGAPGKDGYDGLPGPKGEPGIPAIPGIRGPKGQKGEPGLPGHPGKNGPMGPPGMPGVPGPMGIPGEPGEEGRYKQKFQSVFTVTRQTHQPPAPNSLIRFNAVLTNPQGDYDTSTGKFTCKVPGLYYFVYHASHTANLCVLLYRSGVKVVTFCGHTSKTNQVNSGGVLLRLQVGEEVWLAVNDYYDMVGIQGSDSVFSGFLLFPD
Protocol: The antigen used was a human C1q protein (hC1q).
First, a 96-well maxisorp plate (Thermo fisher) was coated at 4° C. overnight with 50 μL of solutions containing each antibody prepared at 30, 10, 3, 1, 0.3, 0.1, and 0.03 μg/mL in PBS. Each well of the plate was washed with Wash buffer to remove the antibody not bound to the plate, and then the wells were blocked with 200 μL of Blocking/dilution Buffer at room temperature for 2 hours or longer. After the Blocking/dilution Buffer was removed from each well, hC1q (Calbiochem) prepared such that the final concentration was 3 μg/mL in Blocking/dilution Buffer was added at 50 μL per well. The plate was then allowed to stand at room temperature for 1 hour to allow hC1q to bind to the antibody within each well. After washing with Wash Buffer, 50 μL of an HRP-conjugated anti-hC1q antibody (AbDSerotec) diluted with Blocking/dilution Buffer was added to each well, and the plate was incubated while standing for 1 hour. After washing with Wash Buffer, TMB single solution (Invitrogen) was added. The color development reaction of the solution in each well was stopped by addition of Stop Buffer, and then the developed color was measured by absorbance at 450 nm and 690 nm.

Sequence of hFcγRIIIaV on hFcγRIIIaV-expressing Jurkat cells (P08637 17-254, form in doubt): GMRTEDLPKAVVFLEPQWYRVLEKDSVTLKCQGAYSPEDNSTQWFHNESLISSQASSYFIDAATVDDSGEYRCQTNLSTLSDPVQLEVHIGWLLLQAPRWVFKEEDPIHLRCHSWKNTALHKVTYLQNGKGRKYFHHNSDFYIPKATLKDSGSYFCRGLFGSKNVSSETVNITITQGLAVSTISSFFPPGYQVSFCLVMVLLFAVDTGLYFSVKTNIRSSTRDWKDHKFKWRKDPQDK
T1 sequence (P08637 17-208 F176V limits assumed): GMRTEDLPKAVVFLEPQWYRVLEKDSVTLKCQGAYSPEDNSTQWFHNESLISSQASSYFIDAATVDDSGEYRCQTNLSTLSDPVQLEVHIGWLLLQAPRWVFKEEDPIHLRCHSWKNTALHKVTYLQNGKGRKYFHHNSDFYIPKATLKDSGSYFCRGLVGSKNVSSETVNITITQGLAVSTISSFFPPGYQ
T4 sequence (P08637 17-208): as the sequence (P08637 17-208 F176V limits assumed) above, with V160F counted along it
T5 sequence (P12314 16-292): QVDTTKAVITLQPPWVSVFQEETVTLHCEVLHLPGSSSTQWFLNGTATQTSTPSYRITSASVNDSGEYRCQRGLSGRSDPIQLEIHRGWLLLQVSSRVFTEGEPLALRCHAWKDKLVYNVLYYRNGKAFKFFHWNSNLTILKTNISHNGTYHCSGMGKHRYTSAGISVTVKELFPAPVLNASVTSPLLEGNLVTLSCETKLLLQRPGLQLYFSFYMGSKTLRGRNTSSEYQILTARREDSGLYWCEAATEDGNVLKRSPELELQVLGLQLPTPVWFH

A/I ratio (KD for FcγRIIb divided by KD for each FcγR) [1]: 2000 | A/I ratio (KD for FcγRIIb divided by KD for each FcγR) [2]: 181 | A/I ratio (KD for FcγRIIb divided by KD for each FcγR) [3]: 52.4 | A/I ratio (KD for FcγRIIb divided by KD for each FcγR) [4]: 396 | Kd [5]: 3.16 nM | Kd [6]: 35 nM | Kd [7]: 121 nM | Kd [8]: 16 nM | Kd [9]: 0.172 nM | Kd [10]: 6.33 µM | EC50 value (hFcγRIIaH ADCP Reporter Bioassay, Hepa1-6/hEREG target cells) [11]: 0.0158 µg/mL | EC50 value (hFcγRIIIaV ADCC Reporter Bioassay, Hepa1-6/hEREG target cells) [12]: 1.53 ng/mL | Relative value to KD between G1d and hFcgRs [13]: 1.6 | Relative value to KD between G1d and hFcgRs [14]: 114 | Relative value to KD between G1d and hFcgRs [15]: 32.1 | Relative value to KD between G1d and hFcgRs [16]: 13.7 | Relative value to KD between G1d and hFcgRs [17]: 185 | Relative value to KD between G1d and hFcgRs [18]: 0.5 | binding result [19]: binds
B1: H240-Kn443/L73-k0//H240-Hl408/L73-k0 (antibody, human IgG1, kappa)
heavy 1: QDQLVQSGAEVKKPGASVKVSCKASGFNIKDTYIQWVRQAPGQGLEWMGRIDPLRKQTKYREKFEGRVTITADTSTNTAYMELSSLRSEDTAVYYCVRSGREFDYWGQGTLVTVSSASTKGPSVFPLAPSSKSTSGGTAALGCLVKDYFPEPVTVSWNSGALTSGVHTFPAVLQSSGLYSLSSVVTVPSSSLGTQTYICNVNHKPSNTKVDKKVEPKSCDKTHTCPPCPAPEFQWGPMVFLFPPKPKDTLMISRTPEVTCVVVDVSDEEPEVKFNWYVDGVEVHNAKTKPREEQYNATYRVVSVLTVLHQDWLNGKEYKCKVSNDALPAPIEKTISKAKGQPREPQVCTLPPSRDELTKNQVSLWCLVKGFYPSDIAVEWESNGQPENNYKTTPPVLDSDGSFFLYSKLTVDKSRWQQGNVFSCSVMHEALHNHYTQKSLSLSP
heavy 2: QDQLVQSGAEVKKPGASVKVSCKASGFNIKDTYIQWVRQAPGQGLEWMGRIDPLRKQTKYREKFEGRVTITADTSTNTAYMELSSLRSEDTAVYYCVRSGREFDYWGQGTLVTVSSASTKGPSVFPLAPSSKSTSGGTAALGCLVKDYFPEPVTVSWNSGALTSGVHTFPAVLQSSGLYSLSSVVTVPSSSLGTQTYICNVNHKPSNTKVDKKVEPKSCDKTHTCPPCPAPELLAGPSVFLFPPKPKDTLMISRTPEVTCVVVDVSHEEPEVKFNWYVDGVEVHNAKTKPREEQYNATYRVVSVLTVLHQDWLNGKEYKCKVSNDALPAPIEETISKAKGQPREPQVYTLPPSRCELTKNQVSLSCAVKGFYPSDIAVEWESNGQPENNYKTTPPVLDSDGSFFLVSKLTVDKSRWQQGNVFSCSVMHEALHNHYTQKSLSLSP
light: DIQMTQSPSSLSASVGDRVTITCRASQDIHKYIAWYQQKPGQAPRLLIQYTSTLQPGVPSRFSGSGSGTDYTFTISSLQPEDIATYYCLQYEQLRTFGGGTKVEIKRTVAAPSVFIFPPSDEQLKSGTASVVCLLNNFYPREAKVQWKVDNALQSGNSQESVTEQDSKDSTYSLSSTLTLSKADYEKHKVYACEVTHQGLSSPVTKSFNRGEC
notes: also called EGL-ART3; ART3

A/I ratio (KD for FcγRIIb divided by KD for each FcγR) [1]: 6850 | A/I ratio (KD for FcγRIIb divided by KD for each FcγR) [2]: 47.2 | A/I ratio (KD for FcγRIIb divided by KD for each FcγR) [3]: 28.1 | A/I ratio (KD for FcγRIIb divided by KD for each FcγR) [4]: 2350 | Kd [5]: 0.51 nM | Kd [6]: 74.9 nM | Kd [7]: 126 nM | Kd [8]: 1.5 nM | Kd [9]: 0.028 nM | Kd [10]: 3.53 µM | EC50 value (hFcγRIIaH ADCP Reporter Bioassay, Hepa1-6/hEREG target cells) [11]: 0.0171 µg/mL | EC50 value (hFcγRIIIaV ADCC Reporter Bioassay, Hepa1-6/hEREG target cells) [12]: 1.07 ng/mL | Relative value to KD between G1d and hFcgRs [13]: 2.8 | Relative value to KD between G1d and hFcgRs [14]: 695 | Relative value to KD between G1d and hFcgRs [15]: 15 | Relative value to KD between G1d and hFcgRs [16]: 13.2 | Relative value to KD between G1d and hFcgRs [17]: 1970 | Relative value to KD between G1d and hFcgRs [18]: 3.2 | binding result [19]: binds
B2: H240-Kn461/L73-k0//H240-Hl443/L73-k0 (antibody, human IgG1, kappa)
heavy 1: B1 heavy 1 with T249V, T306P, I331E
heavy 2: B1 heavy 2 with T249V, T306P, I331E
light: B1 light
notes: also called EGL-ART8; ART8

A/I ratio (KD for FcγRIIb divided by KD for each FcγR) [1]: 2060 | A/I ratio (KD for FcγRIIb divided by KD for each FcγR) [2]: 240 | A/I ratio (KD for FcγRIIb divided by KD for each FcγR) [3]: 49.9 | A/I ratio (KD for FcγRIIb divided by KD for each FcγR) [4]: 399 | Kd [5]: 3.86 nM | Kd [6]: 33.2 nM | Kd [7]: 160 nM | Kd [8]: 20 nM | Kd [9]: 0.169 nM | Kd [10]: 7.96 µM | EC50 value (hFcγRIIaH ADCP Reporter Bioassay, Hepa1-6/hEREG target cells) [11]: 0.0245 µg/mL | EC50 value (hFcγRIIIaV ADCC Reporter Bioassay, Hepa1-6/hEREG target cells) [12]: 1.67 ng/mL | Relative value to KD between G1d and hFcgRs [13]: 1.3 | Relative value to KD between G1d and hFcgRs [14]: 92.9 | Relative value to KD between G1d and hFcgRs [15]: 33.9 | Relative value to KD between G1d and hFcgRs [16]: 10.4 | Relative value to KD between G1d and hFcgRs [17]: 148 | Relative value to KD between G1d and hFcgRs [18]: 0.5 | binding result [19]: binds
B3: H240-Kn462/L73-k0//H240-Hl441/L73-k0 (antibody, human IgG1, kappa)
heavy 1: B1 heavy 1 with T249V, T306P
heavy 2: B1 heavy 2 with T249V, T306P
light: B1 light
notes: also called EGL-ART5; ART5

From US20260022175A1 (Chugai, published 2026)
